Experimental data reported in US7572594B2, “Screening assays for agonists or antagonists or receptor activator of NF-κB” (Immunex Corporation, priority 2000, dated 2009).
“Also recorded” adds a separate entry of the source.

What was measured:
c-src tyrosine kinase = test: c-src immune complex kinase assay in RANK −/− osteoclast precursors infected with RANK retrovirus; type: cell-based, mouse
Procedure: Experiments were conducted in which DNA encoding wild-type or human RANK/TRAF6 binding mutant (RANK Δ340-421) was introduced into hematopoietic cells isolated from RANK −/− mice. Full-length and mutant human RANK DNAs were subcloned into the pBMNZ retroviral vector as previously described (Kinsella and Nolan, 1996, Human Gene Therapy 7:1405-1413). Infectious RANK-containing retrovirus was produced in 293-E Phoenix packaging cells as described (Kinsella and Nolan, 1996). Supernatants from these cells were used as a source of infectious virus particles.
The generation of the RANK −/− mice used in these assays has been described previously (Dougall et al., 1999). Spleen cells were isolated from 3-6 week old RANK−/− mice and enriched for osteoclast precursors by depleting the initial cell population of various types of cells other than osteoclast precursors. For this “depletion” step, the cells were incubated with biotinylated antibodies against CD3 (specific for T cells), Ter-119 (specific for erythrocytes), and GR-1 (specific for granulocytes). After the antibodies had bound to their respective target cells, streptavidin-conjugated magnetic beads were added to the culture, and the mixture of cells was passed over magnetic columns (MACS depletion columns; MILLTENNYI). […]
To induce c-src and F-actin rings, recombinant mRANK-L/leucine zipper protein was added to the cultures at a concentration of 1 μg/ml for various times after which the cells were lysed in a buffer containing 50 mM HEPES (pH 7.2), 10% glycerol, 250 mM NaCl and 1% Triton X-100. […] C-src activity in the immune complex was monitored using a commercially available assay kit (Upstate Biotechnology, Lake Placid, N.Y.). […] The phosphorylated substrate peptide was then separated from the residual labeled ATP using phosphocellulose paper and labeled peptide was quantified using a scintillation counter. […]

[1] = tested on: spleen cells from RANK −/− mice; test: CaPO4 resorption (pit formation) assay; type: cell-based, mouse; conditions: 5 days in 40 ng/ml CSF-1 and 200 ng/ml mRANK-L on CaPO4 film; listed as full-length RANK
Excerpt: The resorption of CaPO4, upon which this assay is based, is considered to be a measure of osteoclast activity. Spleen cells were isolated from 3-6 week old RANK −/− mice and treated as described in Example 9 to remove cells expressing the CD3, Ter-119, and GR-1 antigens. Cells not expressing any of these antigens were harvested and infected as described in Example 9 with retroviral vector particles containing full-length or TRAF6 binding site deletion mutants of RANK.
Following infection, the spleen cells were harvested and plated in MEM containing 10% fetal bovine serum containing 40 ng/ml CSF-1 and 200 ng/ml mRANK-L onto 16 well quartz slides coated with a thin film of CaPO4 (Osteologic, BD Biosystems). After 5 days in culture, the slides were washed, the cells removed by washing with bleach, and the slides washed again with buffer. […] The number of pits in the CaPO4 film is a measure of the extent to which the RANK-L induced the cells grown on that slide to differentiate into osteoclasts.
If desired, the CaPO4 film can be stained using a 0.5% solution of alizarin red for 4 to 5 minutes followed by washing in water. After staining, the resorptive lacunae are visualized by phase contrast microscopy as a clear area on a red background.

[2] = tested on: murine MMP-9 promoter (SEQ ID NO:11); test: murine MMP-9 promoter/luciferase reporter in 293/EBNA cells; type: cell-based; conditions: 40 ng reporter
Excerpt: This example describes the activation of the TRAP promoter. A 2.6 kb DNA fragment containing the human TRAP promoter was obtained by digesting the plasmid pBL2HT2.2 with the restriction endonuclease ApaI. The cloning of the human TRAP gene 5′ region and the construction of pBL2HT2.2 are fully described in Reddy et al. (Bone 16:587-593 (1995)). A DNA containing the mouse TRAP promoter (SEQ ID NO:12) and a DNA containing the murine MMP-9 promoter (SEQ ID NO:11) also were used for these experiments. DNAs containing the promoters were fused to the luciferase reporter gene. These promoter/reporter constructs were transfected into human 293/EBNA cells along with various combinations of expression vectors that encoded full-length human RANK (SEQ ID NO:2) and human full-length RANK-L proteins (SEQ ID NO:6).
For the murine MMP-9 promoter experiments, 4.1 kb of the murine MMP-9 promoter (SEQ ID NO:11) were fused to a luciferase gene and transfected (40 ng) into 293/EBNA cells. Transfection of either RANK (SEQ ID NO:2) alone or the combination of RANK (SEQ ID NO:2) plus RANK-L (SEQ ID NO:6) increased reporter expression 2.5-fold.

B1: wild type RANK: full-length human RANK, receptor activator of NF-κB (SEQ ID NO:2), expressed from vector or retrovirus (protein, listed as Homo sapiens)
chain: MAPRARRRRPLFALLLLCALLARLQVALQIAPPCTSEKHYEHLGRCCNKCEPGKYMSSKCTTTSDSVCLPCGPDEYLDSWNEEDKCLLHKVCDTGKALVAVVAGNSTTPRRCACTAGYHWSQDCECCRRNTECAPGLGAQHPLQLNKDTVCKPCLAGYFSDAFSSTDKCRPWTNCTFLGKRVEHHGTEKSDAVCSSSLPARKPPNEPHVYLPGLIILLLFASVALVAAIIFGVCYRKKGKALTANLWHWINEACGRLSGDKESSGDSCVSTHTANFGQQGACEGVLLLTLEEKTFPEDMCYPDQGGVCQGTCVGGGPYAQGEDARMLSLVSKTEIEEDSFRQMPTEDEYMDRPSQPTDQLLFLTEPGSKSTPPFSEPLEVGENDSLSQCFTGTQSTVGSESCNCTEPLCRTDWTPMSSENYLQKEVDSGHCPHWAASPSPNWADVCTGCRNPPGEDCEPLVGSPKRGPLPQCAYGMGLPPEEEASRTEARDQPEDGADGRLPSSARAGAGSGSSPGGQSPASGNVTGNSNSTFISSGQVMNFKGDIIVVYVSQTSQEGAAAAAEPMGRPVQEETLARRDSFAGNGPRFPDPCGGPEGLREPEKASRPVQEQGGAKA
For B1, the “32P incorporated into a c-src-specific substrate versus extracts from cells defective in RANK” value (c-src tyrosine kinase; cell extracts following differentiation) was “about 15 fold”, the c-src activity (c-src tyrosine kinase; cells differentiated after retroviral infection, background = uninfected RANK −/− cells) was “high levels of c-src activity” and the CaPO4 resorption [1] was “resorbed the CaPO4 matrix; also recorded: high levels of CaPO4 resorption”. The “increase of reporter expression (luciferase)” value [2] was 2.5 fold.
